Data as given in US20160223554A1, “METHODS FOR DIAGNOSIS, PROGNOSIS AND METHODS OF TREATMENT” (priority 2011, published 2016).

Legend:
AML blasts = experiment: SCNP signaling and apoptosis nodes in AML BMMC (Example 4, Study No. 2); assay type: cell-based, human
[1] = test system: AML bone marrow mononuclear cells (BMMC); experiment: SCNP of paired diagnosis and relapse AML BMMC and independent diagnostic set (Example 5); assay type: cell-based, human; conditions: for modulator responsive cells in the diagnostic AML bone marrow samples: diagnosis samples of Patients 1 and 2, 15 minutes modulation; for cells in which both p-Akt and p-S6 were induced: SCF 20 ng/ml, 15 minutes
Excerpt: All AML bone marrow mononuclear cells (BMMC) were derived from the bone marrow (BM) of AML patients treated at MD Anderson Cancer Center (MDACC) between September 1999 and September 2006. Clinical data were de-identified in compliance with Health Insurance Portability and Accountability Act regulations. Patient/sample inclusion criteria required a diagnosis of French-American-British (FAB) classification of M0 through M7 AML (excluding M3) AML, collection prior to therapy initiation and at least 50% viability upon sample thaw. For the identification of chemoresistant signaling profiles, two longitudinally paired BMMC samples at diagnosis (collection prior to the initiation of induction chemotherapy) and first relapse, were examined. An independent test set comprised of 47 BMMC samples collected at diagnosis from AML patients with a disease response of CR after high dose cytarabine based chemotherapy was used to assess the ability of the identified signaling profiles to predict disease relapse. Healthy, unstimulated BMMC (n=2) were purchased from a commercial source (All Cells) to serve as a control. All samples underwent fractionation over Ficoll-Hypaque prior to cryopreservation with 90% fetal bovine serum and 10% dimethyl sulfoxide and storage in liquid nitrogen.
The SCNP assay measured response to growth factors and cytokines involved in hematopoietic progenitor or myeloid biology (SCF, FLT3L, G-CSF, IL-27), drug transporter (ABCG2, MRP-1) and chemokine receptors (CXCR4) associated with adverse disease prognosis in AML, and the c-Kit growth factor receptor for SCF. The SCF and FLT3L—mediated PI3K/Akt and MAPK pathway is important for maintaining the hematopoietic stem cell pool; G-CSF-mediated Jak/STAT pathway activation is important for neutrophilic differentiation of hematopoietic progenitor cells; interleukin (IL)-27 mediated Jak/STAT pathway activation is important in regulating proliferation and differentiation of hematopoietic stem cells; CXCR4 expression is associated with disease relapse and decreased survival; and drug transporter expression levels (i.e. ABCG2 and MRP-1) are known to be associated with adverse prognosis in AML. All together, approximately 20 signaling nodes were evaluated in each sample.
SCNP assays were performed as described previously. Cryopreserved samples were thawed at 37° C. and washed once in warm PBS containing 10% FBS (HyClone, Waltham, Mass., USA) and 2 mM EDTA. […] The cells were re-suspended in RPMI containing 1% FBS, aliquoted to 100,000 cells/condition and rested for 1-2 hours at 37° C. Cells were incubated for 15 minutes at 37° C. with each of the following signaling modulators: fins-like tyrosine kinase receptor-3 ligand (FLT3L, 50 ng/ml; eBiosciences, San Diego, Calif., USA); granulocyte colony-stimulating factor (G-CSF, 50 ng/ml; R&D Systems, Minneapolis, Minn., USA); interleukin-27 (IL-27, 50 ng/ml, R&D Systems); stem cell factor (SCF, 20 ng/ml, R&D Systems). After exposure to modulators, cells were fixed with a final concentration of 1.6% paraformaldehyde (Electron Microscopy Sciences, Hatfield, Pa., USA) for 10 minutes at 37° C. Cells were pelleted and then permeabilized with 100% ice-cold methanol (Sigma-Aldrich, St. Louis, Mo., USA) and stored at −80° C. overnight. Subsequently, cells were washed with FACS buffer containing phosphate buffered saline (PBS, Fisher Scientific, Waltham, Mass., USA), 0.5% bovine serum albumin (BSA, Ankeny, Iowa, USA), 0.05% NaN3 (Mallinckrodt, Hazelwood, Mo., USA), pelleted and stained with cocktails of fluorochrome-conjugated antibodies. As an exploratory effort, when sufficient number of cells were available, simultaneous measurement of c-Kit expression and SCF induced signaling was also performed. Antibodies were available from commercial vendors such as BD, Bechman Coulter, Invitrogen and R&D Systems.
Flow cytometry data was acquired on an LSR II and/or CANTO II flow cytometer using the FACS DIVA software (BD Biosciences, San Jose, Calif.). […]

[2] = test system: elderly pts with untreated AML; conditions: cited from earlier work
[3] = Study No.2, patients age 60 and older
[4] = Study No.2, patients with De Novo AML
[5] = Study No.2, patients with Secondary AML
[6] = Fold metric, all patients, Study No. 2
[7] = Study No.2, patients less than 60 years old
[8] = TotalPhospho metric, all patients, Study No. 2

Molecule: SCF: stem cell factor, ligand of c-Kit
- Mean Value of CRs, p-S6 Fold (AML blasts; [3]): 0.14
- Mean Value of NRs, p-S6 Fold (AML blasts; [3]): 0.70
- Mean Value of CRs, p-Akt Fold (AML blasts; [4]): 0.52
- Mean Value of CRs, p-PLCy2 TotalPhospho (AML blasts; [4]): 1.29
- Mean Value of CRs, p-S6 Fold (AML blasts; [4]): 1.05
- Mean Value of NRs, p-Akt Fold (AML blasts; [4]): −0.20
- Mean Value of NRs, p-PLCy2 TotalPhospho (AML blasts; [4]): 1.96
- Mean Value of NRs, p-S6 Fold (AML blasts; [4]): 0.43
- Mean Value of CRs, p-S6 Fold (AML blasts; [5]): 0.21
- Mean Value of NRs, p-S6 Fold (AML blasts; [5]): 1.28
- modulator responsive cells in the diagnostic AML bone marrow samples [1]: ~1%
- cells in which both p-Akt and p-S6 were induced ([1]; relapse sample from Patient 1): 3.2%
- cells in which both p-Akt and p-S6 were induced ([1]; relapse sample from Patient 2): 31.7%

B1: G-CSF: granulocyte colony-stimulating factor (protein, UniProt P09919 31-207, looked up)
Granulocyte …: TPLGPASSLPQSFLLKCLEQVRKIQGDGAALQEKLVSECATYKLCHPEELVLLGHSLGIPWAPLSSCPSQALQLAGCLSQLHSGLFLYQGLLQALEGISPELGPTLDTLQLDVADFATTIWQQMEELGMAPALQPTQGAMPAFASAFQRRAGGVLVASHLQSFLEVSYRVLRHLAQP
- Med RFS ([2]; SWOG-9031, by arm (NS)): 9 mo; G-CSF: 8
- CR Rates ([2]; SWOG-9031, by arm, added to Ara-C/DNR induction, p = 0.89): G-CSF: 41%
- Med. OS ([2]; SWOG-9031, by arm, p = .71): G-CSF: 6 mos.
- Mean Value of CRs, p-Stat1 Fold (AML blasts; [5]): 0.00
- Mean Value of CRs, p-Stat3 Fold (AML blasts; [5]): 0.06
- Mean Value of CRs, p-Stat5 Fold (AML blasts; [5]): 0.08
- Mean Value of CRs, p-Stat5 TotalPhospho (AML blasts; [5]): 2.58
- Mean Value of NRs, p-Stat1 Fold (AML blasts; [5]): 0.36
- Mean Value of NRs, p-Stat3 Fold (AML blasts; [5]): 0.96
- Mean Value of NRs, p-Stat5 Fold (AML blasts; [5]): 1.07
- Mean Value of NRs, p-Stat5 TotalPhospho (AML blasts; [5]): 3.91
- modulator responsive cells in the diagnostic AML bone marrow samples [1]: ~1%

B2: IL-27: interleukin-27, cytokine modulator (protein, UniProt Q8NEV9 29-243; Q14213 21-229, looked up)
Interleukin-27 subunit alpha: FPRPPGRPQLSLQELRREFTVSLHLARKLLSEVRGQAHRFAESHLPGVNLYLLPLGEQLPDVSLTFQAWRRLSDPERLCFISTTLQPFHALLGGLGTQGRWTNMERMQLWAMRLDLRDLQRHLRFQVLAAGFNLPEEEEEEEEEEEEERKGLLPGALGSALQGPAQVSWPQLLSTYRLLHSLELVLSRAVRELLLLSKAGHSVWPLGFPTLSPQP
Interleukin-27 subunit beta: RKGPPAALTLPRVQCRASRYPIAVDCSWTLPPAPNSTSPVSFIATYRLGMAARGHSWPCLQQTPTSTSCTITDVQLFSMAPYVLNVTAVHPWGSSSSFVPFITEHIIKPDPPEGVRLSPLAERQLQVQWEPPGSWPFPEIFSLKYWIRYKRQGAARFHRVGPIEATSFILRAVRPRARYYVQVAAQDLTDYGELSDWSLPATATMSLGK
- Mean Value of CRs, p-Stat3 (AML blasts; [6]): 0.22
- Mean Value of NRs, p-Stat3 (AML blasts; [6]): 0.58
- Mean Value of CRs, p-Stat3 Fold (AML blasts; [3]): −0.19
- Mean Value of NRs, p-Stat3 Fold (AML blasts; [3]): 0.48
- Mean Value of CRs, p-Stat1 TotalPhospho (AML blasts; [7]): 1.73
- Mean Value of CRs, p-Stat3 Fold (AML blasts; [7]): 0.29
- Mean Value of CRs, p-Stat3 TotalPhospho (AML blasts; [7]): 1.97
- Mean Value of NRs, p-Stat1 TotalPhospho (AML blasts; [7]): 3.12
- Mean Value of NRs, p-Stat3 Fold (AML blasts; [7]): 0.72
- Mean Value of NRs, p-Stat3 TotalPhospho (AML blasts; [7]): 3.06
- Mean Value of CRs, p-Stat1 Fold (AML blasts; [5]): 0.32
- Mean Value of CRs, p-Stat1 TotalPhospho (AML blasts; [5]): 1.50
- Mean Value of CRs, p-Stat3 Fold (AML blasts; [5]): −0.01
- Mean Value of CRs, p-Stat3 TotalPhospho (AML blasts; [5]): 1.61
- Mean Value of NRs, p-Stat1 Fold (AML blasts; [5]): 1.90
- Mean Value of NRs, p-Stat1 TotalPhospho (AML blasts; [5]): 3.19
- Mean Value of NRs, p-Stat3 Fold (AML blasts; [5]): 0.76
- Mean Value of NRs, p-Stat3 TotalPhospho (AML blasts; [5]): 2.60
- Mean Value of CRs, p-Stat1 (AML blasts; [8]): 1.66
- Mean Value of CRs, p-Stat3 (AML blasts; [8]): 1.88
- Mean Value of NRs, p-Stat1 (AML blasts; [8]): 2.63
- Mean Value of NRs, p-Stat3 (AML blasts; [8]): 2.43
- modulator responsive cells in the diagnostic AML bone marrow samples [1]: no IL-27 responsive subpopulation was identified

B3: FLT3L: fms-like tyrosine kinase receptor-3 ligand (protein, UniProt P49771 27-235, looked up)
Fms-related tyrosine kinase 3 …: TQDCSFQHSPISSDFAVKIRELSDYLLQDYPVTVASNLQDEELCGGLWRLVLAQRWMERLKTVAGSKMQGLLERVNTEIHFVTKCAFQPPPSCLRFVQTNISRLLQETSEQLVALKPWITRQNFSRCLELQCQPDSSTLPPPWSPRPLEATAPTAPQPPLLLLLLLPVGLLLLAAAWCLHWQRTRRRTPRPGEQVPPVPSPQDLLLVEH
- Mean Value of CRs, p-Akt Fold (AML blasts; [3]): 0.00
- Mean Value of CRs, p-Erk Fold (AML blasts; [3]): 0.01
- Mean Value of CRs, p-S6 Fold (AML blasts; [3]): −0.06
- Mean Value of NRs, p-Akt Fold (AML blasts; [3]): 0.36
- Mean Value of NRs, p-Erk Fold (AML blasts; [3]): 0.21
- Mean Value of NRs, p-S6 Fold (AML blasts; [3]): 0.67
- Mean Value of CRs, p-PLCy2 TotalPhospho (AML blasts; [4]): 1.26
- Mean Value of NRs, p-PLCy2 TotalPhospho (AML blasts; [4]): 1.95
- Mean Value of CRs, P-Erk Fold (AML blasts; [5]): 0.00
- Mean Value of CRs, p-Akt Fold (AML blasts; [5]): 0.19
- Mean Value of CRs, p-S6 Fold (AML blasts; [5]): 0.12
- Mean Value of NRs, P-Erk Fold (AML blasts; [5]): 0.32
- Mean Value of NRs, p-Akt Fold (AML blasts; [5]): 0.60
- Mean Value of NRs, p-S6 Fold (AML blasts; [5]): 1.02
- modulator responsive cells in the diagnostic AML bone marrow samples [1]: ~1%
